The data set relates to FLAG-cGAS (Homo sapiens). As to the kind of experiment: pull-down (streptavidin, Western blot; ligand transfected into HEK293T 2 h). The following applies: 5' or 3' position of biotin not stated, forward strand biotinylated, reverse unmodified, HEK293T transfected with 4 ug/mL biotin-ISD45 for 2 h, then streptavidin IP, IP buffer, pH and temperature not in the material (oligo annealing: 5 mM Tris pH 7.). In general terms: In western blotting, separated proteins are transferred to a membrane and probed.

biotinylated ISD45: the binding signal (fold of empty vector) (WT SRC-HA coexpressed) is 0.466 and the binding signal (fold of empty vector) (empty vector, no SRC-HA, non-biotinylated ISD45 background 0.1436) amounted to 1.
